The text below walks through data of patent US9809835B2, “Quantitative control of sialylation” (Roche Diagnostics Operations, Inc., priority 2013, dated 2017).

One assay addresses T1, Δ89 hST6Gal-I (Homo sapiens, UniProt P15907).
T1 construct: the construct of Epo-AP-Δ89 hST6Gal-I was secreted without the N-terminal amino acids AP; Erythropoietin signal peptide (Epo) (N, cleaved yes); AP spacer (two amino acids) (N, cleaved yes); made in house; host or cells: HEK293 (transient gene expression, secreted)
T1 sequence (P15907 90-406): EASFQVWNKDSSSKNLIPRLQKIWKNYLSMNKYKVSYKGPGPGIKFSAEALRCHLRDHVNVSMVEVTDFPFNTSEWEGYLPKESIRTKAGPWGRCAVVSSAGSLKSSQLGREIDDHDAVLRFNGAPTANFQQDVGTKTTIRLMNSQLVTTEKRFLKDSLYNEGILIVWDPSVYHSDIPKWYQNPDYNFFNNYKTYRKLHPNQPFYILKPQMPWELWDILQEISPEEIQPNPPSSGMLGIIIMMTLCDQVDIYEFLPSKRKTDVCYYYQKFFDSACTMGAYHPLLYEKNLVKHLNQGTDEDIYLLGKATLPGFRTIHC
The assay is described as follows: Inhibition of sialidase activity of Δ89 hST6Gal-I by CTP. The class given is biochemical. How it is done:
The compound cytidine triphosphate (CTP) is a potent inhibitor of sialyltransferases (Scudder P R & Chantler E N B B A 660 (1981) 136-141). […] After 7 h of incubation the G2+2SA content was 94%. […] At different times samples were taken and the content of G2+0SA, G2+1SA and G2+2SA was determined by mass spectrometry. […] After 72 h of incubation 73% of G2+2SA were still present.

A further assay relates to MAB<IL-1R>. The assay is described as follows: Sialylation of humanized monoclonal antibody MAB<IL-1R> using Δ89 hST6Gal-I, glycan content by mass spectrometry. The class given is biochemical. How it is done: A highly galactosylated humanized monoclonal antibody IgG4 MAB<IL-1R>(WO 2005/023872) was used in sialylation experiments. […] The samples were incubated at 37° C. for a defined time. To stop the reaction the samples were frozen at −20° C. For mass analysis 100 μl denaturing buffer (6 M guanidinium chloride) and 30 μl TCEP (0.1 mM, diluted in denaturing buffer) were added to the samples and the samples were incubated at 37° C. for 1 h. The sample were buffered in electrospray-medium (20% ACN, 1% FA) using pre-equilibrated illustra™ Nap5-Columns (GE-Healthcare). Samples were analyzed by electrospray ionization mass spectrometry and the content of G2+0SA, G2+1SA and G2+2SA N-glycans was determined. A Micromass Q-Tof Ultima and a Synapt G2 HDMS device (Waters UK) were used, the software used was MassLynx V 4.1. To determine the kinetics of the sialylation the reaction was incubated up to 72 h.

`Nc1ccn([C@@H]2O[C@H](COP(=O)(O)OP(=O)(O)OP(=O)(O)O)[C@@H](O)[C@H]2O)c(=O)n1` [CTP, cytidine triphosphate]: the “degradation of G2+2SA caused by the sialidase activity” value at Δ89 hST6Gal-I (CTP 0.67 mM, compared to inhibitor-free conditions) is on record as “significantly reduced”. Besides, the “G2+2SA still present” value at Δ89 hST6Gal-I (after 72 h of incubation, CTP added after 7 h, final concentration 0.67 mM) is recorded as 73%.

B1: Δ89 hST6Gal-I: N-terminally truncated human β-galactoside-α-2,6-sialyltransferase I, positions 1 to 89 of SEQ ID NO:1 deleted; amino acid sequence of SEQ ID NO:2 (protein)
chain: EASFQVWNKDSSSKNLIPRLQKIWKNYLSMNKYKVSYKGPGPGIKFSAEALRCHLRDHVNVSMVEVTDFPFNTSEWEGYLPKESIRTKAGPWGRCAVVSSAGSLKSSQLGREIDDHDAVLRFNGAPTANFQQDVGTKTTIRLMNSQLVTTEKRFLKDSLYNEGILIVWDPSVYHSDIPKWYQNPDYNFFNNYKTYRKLHPNQPFYILKPQMPWELWDILQEISPEEIQPNPPSSGMLGIIIMMTLCDQVDIYEFLPSKRKTDVCYYYQKFFDSACTMGAYHPLLYEKNLVKHLNQGTDEDIYLLGKATLPGFRTIHC
modifications: delta89 truncation variant of hST6Gal-I
In the case of B1, in the assay with MAB<IL-1R> (after 2 hours of incubation, 37° C., 30 μg enzyme/300 μg MAB<IL-1R>, CMP-NANA donor), the “content of the bi-sialylated form G2+2SA” value was 88%. In addition, in the assay with MAB<IL-1R> (after 7 h of incubation, before addition of CTP (Example 11)), the “G2+2SA content” value was 94%. Moreover, the “G2+1SA content” value in the assay with MAB<IL-1R> (after an incubation of 48 h, 37° C., 30 μg enzyme/300 μg MAB<IL-1R>, CMP-NANA donor) worked out at 71%. Moreover, the entries for the “dominant glycan species of MAB<IL-1R> (mass spectrum)” value with MAB<IL-1R> (t=8 h) and with MAB<IL-1R> (t=48 h) were “G2+2SA is the dominant form” and “G2+1SA is the most abundant species”, respectively.
